# Assays:
# Format in all cases: cell-based, human
# [1] = test system: MDA-MB-231 cells; test: Endocytosis capacity of murine monoclonal antibody (flow cytometry internalization); conditions: antibody 1.5 μg/mL; for Internalization MDA-MB-231 (%) 0.5 h: MDA-MB-231, 0.5 h at 37° C.; for Internalization MDA-MB-231 (%) 1 h: MDA-MB-231, 1 h at 37° C.; for Internalization MDA-MB-231 (%) 2 h: MDA-MB-231, 2 h at 37° C.
# Summary of the method: (§1)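 MDA-MB-231 and PC3 cells (EDTA-detached, Fc-blocked) bound with 1.5 μg/mL test antibody at 4° C for 30 min, washed, then held at 37° C for 0.5, 1 or 2 h. Surface antibody detected with PE anti-human IgG Fc by flow cytometry; internalization (%) = (Geo-MFI 0 h − Geo-MFI at time point)/Geo-MFI 0 h × 100%.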
# [2] = test system: PC3 cells; test: as above; conditions: antibody 1.5 μg/mL; for Internalization PC3 (%) 0.5 h: PC3, 0.5 h at 37° C.; for Internalization PC3 (%) 1 h: PC3, 1 h at 37° C.; for Internalization PC3 (%) 2 h: PC3, 2 h at 37° C.
# Summary of the method: as §1
# [3] = test system: MDA-MB-231 cells; test: Effect of antibody on tumor cell proliferation (CellTiter-Glo); conditions: MDA-MB-231, 96 h
# Procedure: (§2) 3000 cells (breast cancer MDA-MB-231, prostate cancer PC-3 cells)/well were plated onto 96-well plates overnight, an antibody at a final concentration of 500 nM to 0.00128 nM (100 nM to 0.000256 nM, 100, 20, 4, 0.8, 0.16, 0.032, 0.0064, 0.00128, 0.000256 nM, respectively) was added; after a 5-fold dilution across 9 concentration points and culturing in a CO2 incubator at 37° C. for 96 h, half of the medium (100 μL) was discarded, and 100 μL of CellTiter-Glo Luminescent Cell Viability assay reagent (Promega, cat #G7570) was added to detect signal values on a BMG microplate reader. The inhibition of antibody on tumor cell growth was calculated by graphpad fitting based on the signal value and antibody concentration.
# [4] = test system: PC-3 cells; test: as above; conditions: PC-3, 96 h
# Procedure: as §2
# [5] = test system: MDA-MB-231 cells; test: Transwell tumor cell migration experiment; conditions: MDA-MB-231, antibody 10 μg/ml
# Procedure: In order to determine the effect of antibodies on tumor cell metastasis, the migration ability of tumor cells was examined in this study according to a transwell experiment. The specific cell migration experiment involved culturing and collecting MDA-MB-231 cells, washing them once with PBS, adjusting the density to 8×10^5 cells/mL, adding the antibody to be tested to the cells such that the working concentration thereof was 10 μg/ml, co-incubating for 30 mins, adding a cell suspension to the upper chamber of the transwell chamber, placing the transwell chamber in the incubator for 12-48 h, then removing the chamber (transwell chamber, to examine cell migration ability), immobilizing the cells, staining the cells with crystal violet for 15 mins, washing, air drying, mounting, and taking photos of 4-5 fields of view under a microscope, and counting the number or area of the stained cells using imageJ analysis software, the number or area was used as the basis for determining tumor cell migration.
Molecule,Internalization MDA-MB-231 (%) 0.5 h [1] [%],Internalization MDA-MB-231 (%) 1 h [1] [%],Internalization MDA-MB-231 (%) 2 h [1] [%],Internalization PC3 (%) 0.5 h [2] [%],Internalization PC3 (%) 1 h [2] [%],Internalization PC3 (%) 2 h [2] [%],effect on tumor cell growth (FIG. 4a) [3],effect on tumor cell growth (FIG. 4b) [4],"effect on tumor cell migration (transwell, FIG. 4c) [5]"
"8E5: anti-CDCP1 murine monoclonal antibody (hybridoma); VH SEQ ID NO: 258, VL SEQ ID NO: 308 (antibody, V domains shown, 8E5 heavy chain variable region; 8E5 light chain variable region) VH: EVQLKESGPELKKPGETVKISCKASGYTLTDFSMHWLKQAPGKGLKWMGWINTETGAPTYADDFKGRFALSLDTSANTAYLQINNLKNEDTATYFCSRGRDYDPHFDYWGQGTTVTVSS VL: EIVLTQSPATLSVTPGDRVSLSCRASQSISDFLHWYQQRSHESPRLLIKYASQSISGIPSRFGGSGSGSDFTLNINTVEPEDVGMYYCQSAHSFPYTFGGGTKLEIK",24.32,38.20,53.26,6.54,17.17,42.94,did not exhibit an effect on tumor cell growth,did not exhibit an effect on tumor cell growth,better capability to inhibit tumor cell migration than SEQ135
"10D2: anti-CDCP1 murine monoclonal antibody (hybridoma); VH SEQ ID NO: 260, VL SEQ ID NO: 310 (antibody, V domains shown, 10D2 heavy chain variable region; 10D2 light chain variable region) VH: EVQLQQSGPELKKPGETVKISCKASGYTFTDYSMHWVKQAPGKGLKWMGWINTETGQPTYADDFKGRFAFSLETSASSAYLQINNLKNEDTATYFCTRTFYYDYVGDYWGQGTTVTVSS VL: DIVMTQSHKFMSTSVGDRVSITCKASQDVSTAVAWYRQKPGQSPKLLIYWASTRHTGVPDRLTGSGSGTDFALTINSVQAEDLALYYCQQHSSTPYTFGGGTKLEIK",46.38,57.85,70.77,21.48,41.99,64.19,did not exhibit an effect on tumor cell growth,did not exhibit an effect on tumor cell growth,better capability to inhibit tumor cell migration than SEQ135
"3C11: anti-CDCP1 murine monoclonal antibody (hybridoma); VH SEQ ID NO: 240, VL SEQ ID NO: 291 (antibody, V domains shown, 3C11 heavy chain variable region; 3C11 light chain variable region) VH: EVQLQQSGTVLARPGASVKMSCKASGYNFISYWLHWIKQRPGQGLEWIGGIYPGNTDTTYNQKFKGKAKVTAVTSATTAYMELSSLTNEDSAVYYCIRYDYDRGMDYWGQGTTVTVSS VL: DIQMTQSPSSFSVSLGDRVTITCRASEDIYYRLAWYQQKPGNAPRLLISGATALETGVPSRFSGSGSGKDYTLSITSLQTEDVATYYCQHYWNIPWTFGGGTKLEIK",28.50,36.16,52.23,28.45,39.70,59.90,did not exhibit an effect on tumor cell growth,did not exhibit an effect on tumor cell growth,better capability to inhibit tumor cell migration than SEQ135
"3B12H5: anti-CDCP1 murine monoclonal antibody (hybridoma); VH SEQ ID NO: 239, VL SEQ ID NO: 290 (antibody, V domains shown, 3B12H9/3B12H5 heavy chain variable region; 3B12H5 light chain variable region) VH: EVQLQQSGTVLARPGASVKMSCKASGYSFTIYWVHWVKQRPGQGLEWIGAVYPGNDDTSYNQNFKGKAKLTAVTSATTAYMELSSLTIDDSAVYYCTRHTYDEVFDYWGQGTTVTVSS VL: DIVMTQSPSSLSVSLGDRVTITCKASEDIYYRLAWYQQKPGNAPRLLISGGTNLEAGIPSRFSGSGSGKDYTLSITSLQTEDVAIYYCQHYWNTPWTFGGGTKLEIK",20.76,29.93,49.69,16.54,30.28,50.50,did not exhibit an effect on tumor cell growth,did not exhibit an effect on tumor cell growth,better capability to inhibit tumor cell migration than SEQ135
"6A7: anti-CDCP1 murine monoclonal antibody (hybridoma); VH SEQ ID NO: 243, VL SEQ ID NO: 294 (antibody, V domains shown, 6A7 heavy chain variable region; 6A7 light chain variable region) VH: EVQLKESGAELVRPGASVKVSCKASGYSFTSYWMNWVKQRPGQGLEWIGMIHPSDSETKLNQKFRDRASLTVDKSSSTAYMQLSSPTSEDSAVYYCTINYESFYYAMDYWGQGTTVTVSS VL: DIVMTQSPASLAVSLGQRATISCRASKSVSTSGYSYMHWYQQKPGQPPKLLLYLASNLESGVPARFSGSGSGADFTLNIHPVEEEDAATYYCLHSRELPYTFGGGTKLEIK",28.97,43.77,58.78,22.99,35.14,49.86,did not exhibit an effect on tumor cell growth,did not exhibit an effect on tumor cell growth,better capability to inhibit tumor cell migration than SEQ135
"G10F6: anti-CDCP1 murine monoclonal antibody (hybridoma); VH SEQ ID NO: 256, VL SEQ ID NO: 306 (antibody, V domains shown, G10F6 heavy chain variable region; G10F6 light chain variable region) VH: EVKLVESGPGILQPSQTLSLTCSFSGFSLSTSGMGVSWVRQPSGKGLEWLAHIYWDDDKRYNPSLKGRLTISKDTPRNQVFLEITSVDTTDTATYYCARVPGNWDEDAMDYWGQGTTVTVSS VL: DIQMTQSPLSLPVSLGDQASISCRSSQNIVHTNGNTYLEWYLQKVGQSPKLLIYKVSNRFSGVPDRFSGSGSGTDFTLKISRVEAEDLGVYYCFQGSHVPYTFGGGTKLEIK",34.49,50.70,67.02,3.36,20.68,54.36,did not exhibit an effect on tumor cell growth,did not exhibit an effect on tumor cell growth,better capability to inhibit tumor cell migration than SEQ135
